T1: B-MYB^FL(1–700) (human, UniProt P10244 1-700)
T1 construct: B-MYB, human, residues 1-700 (B-MYB^FL), codon optimised CDS; source: Hi-5 insect cells, expressed separately, purified separately as per the MuvB protocol
T1 sequence (looked up): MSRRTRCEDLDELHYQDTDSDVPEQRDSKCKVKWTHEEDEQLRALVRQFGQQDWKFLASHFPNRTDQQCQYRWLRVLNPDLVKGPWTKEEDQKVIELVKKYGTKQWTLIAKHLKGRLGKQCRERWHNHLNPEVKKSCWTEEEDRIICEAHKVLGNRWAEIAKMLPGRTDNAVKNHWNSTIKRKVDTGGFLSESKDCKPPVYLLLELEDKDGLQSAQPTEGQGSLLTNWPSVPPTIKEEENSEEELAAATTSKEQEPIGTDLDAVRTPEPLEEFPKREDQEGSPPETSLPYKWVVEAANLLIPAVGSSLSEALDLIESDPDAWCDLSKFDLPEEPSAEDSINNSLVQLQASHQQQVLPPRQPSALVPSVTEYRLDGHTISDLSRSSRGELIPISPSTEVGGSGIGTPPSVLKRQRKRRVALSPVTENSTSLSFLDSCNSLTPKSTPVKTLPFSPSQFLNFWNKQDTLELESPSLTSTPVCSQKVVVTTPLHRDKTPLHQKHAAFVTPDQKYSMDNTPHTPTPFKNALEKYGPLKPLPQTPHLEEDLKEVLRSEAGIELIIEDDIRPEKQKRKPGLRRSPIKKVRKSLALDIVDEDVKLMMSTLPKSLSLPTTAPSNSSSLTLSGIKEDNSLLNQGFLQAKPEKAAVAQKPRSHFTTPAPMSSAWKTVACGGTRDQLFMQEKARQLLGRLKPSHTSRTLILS

B1: LIN52^FL(1–116) (natural protein, human, UniProt Q52LA3 1-112, looked up)
chain: MASPTDGTDLEASLLSFEKLDRASPDLWPEQLPGVAEFAASFKSPITSSPPKWMAEIERDDIDMLKELGSLTTANLMEKVRGLQNLAYQLGLDESREMTRGKFLNILEKPKK
notes: LIN52, human, residues 1-116 (LIN52^FL), codon optimised CDS; source: Hi-5 insect cells co-infected with MuvB baculoviruses; purified as part of the complex (Strep-Tactin, 3C protease, SEC)
B2: LIN54^short(515–749) (domain or fragment, human, UniProt Q6MZP7 515-749, looked up)
chain: SESASRPRKPCNCTKSLCLKLYCDCFANGEFCNNCNCTNCYNNLEHENERQKAIKACLDRNPEAFKPKIGKGKEGESDRRHSKGCNCKRSGCLKNYCECYEAKIMCSSICKCIGCKNFEESPERKTLMHLADAAEVRVQQQTAAKTKLSSQISDLLTRPTPALNSGGGKLPFTFVTKEVAEATCNCLLAQAEQADKKGKSKAAAERMILEEFGRCLMSVINSAGKAKSDPCAMNC
notes: LIN54, human, residues 515-749 (non-conserved N-terminus removed), codon optimised CDS; also called short version of LIN54; source: Hi-5 insect cells co-infected with MuvB baculoviruses; purified as part of the complex (Strep-Tactin, 3C protease, SEC)
B3: LIN9^FL(1–542) (natural protein, human, UniProt Q5TKA1 1-542, looked up)
chain: MAELDQLPDESSSAKALVSLKEGSLSNTWNEKYSSLQKTPVWKGRNTSSAVEMPFRNSKRSRLFSDEDDRQINTRSPKRNQRVAMVPQKFTATMSTPDKKASQKIGFRLRNLLKLPKAHKWCIYEWFYSNIDKPLFEGDNDFCVCLKESFPNLKTRKLTRVEWGKIRRLMGKPRRCSSAFFEEERSALKQKRQKIRLLQQRKVADVSQFKDLPDEIPLPLVIGTKVTARLRGVHDGLFTGQIDAVDTLNATYRVTFDRTGLGTHTIPDYEVLSNEPHETMPIAAFGQKQRPSRFFMTPPRLHYTPPLQSPIIDNDPLLGQSPWRSKISGSDTETLGGFPVEFLIQVTRLSKILMIKKEHIKKLREMNTEAEKLKSYSMPISIEFQRRYATIVLELEQLNKDLNKVLHKVQQYCYELAPDQGLQPADQPTDMRRRCEEEAQEIVRHANSSTGQPCVENENLTDLISRLTAILLQIKCLAEGGDLNSFEFKSLTDSLNDIKSTIDASNISCFQNNVEIHVAHIQSGLSQMGNLHAFAANNTNRD
notes: LIN9, human, residues 1-542 (LIN9^FL), codon optimised CDS; Subunit of the co-expressed MuvB, MuvB^core and MMB^core complexes; only DIRP and tudor domains are built in PDB 7R1D; source: Hi-5 insect cells co-infected with MuvB baculoviruses; purified as part of the complex (Strep-Tactin, 3C protease, SEC)
B4: LIN37^FL(1–246) (natural protein, human, UniProt Q96GY3 1-246, looked up)
chain: MFPVKVKVEKSELEMAKARNQLDAVLQCLLEKSHMDRERLDEEAGKTPSDTHNKDCSIAATGKRPSARFPHQRRKKRREMDDGLAEGGPQRSNTYVIKLFDRSVDLAQFSENTPLYPICRAWMRNSPSVRERECSPSSPLPPLPEDEEGSEVTNSKSRDVYKLPPPTPPGPPGDACRSRIPSPLQPEMQGTPDDEPSEPEPSPSTLIYRNMQRWKRIRQRWKEASHRNQLRYSESMKILREMYERQ
notes: LIN37, human, residues 1-246 (LIN37^FL), codon optimised CDS; Carries the StrepII x2 tag by which the MuvB complexes were purified; the tag was removed with 3C protease before the final SEC; also called FL-LIN37; source: Hi-5 insect cells co-infected with MuvB baculoviruses; purified as part of the complex (Strep-Tactin, 3C protease, SEC)

Columns and labels:
LIN37^FL(1–246) = molecular target: B4; assay: mass photometry; purified co-expressed complex diluted from 500 nM just before measurement; 20 mM HEPES pH 8, 150 mM NaCl, 0.5 mM TCEP; conditions: both partners purified
RbBP4^FL(1–425) = molecular target: T2, RbBP4^FL(1–425) (human, UniProt Q09028 1-425); assay: cross-linking; DSSO cross-linking mass spectrometry of 28 μM purified MuvB complex, 10 min on ice, monomeric SEC fraction analysed; conditions: both partners purified
T2 construct: Subunit of the co-expressed MuvB complexes in which the StrepII x2 tag stands on LIN37; source: Hi-5 insect cells co-infected with MuvB baculoviruses; purified as part of the complex (Strep-Tactin, 3C protease, SEC)
T2 sequence (Q09028 whole entry): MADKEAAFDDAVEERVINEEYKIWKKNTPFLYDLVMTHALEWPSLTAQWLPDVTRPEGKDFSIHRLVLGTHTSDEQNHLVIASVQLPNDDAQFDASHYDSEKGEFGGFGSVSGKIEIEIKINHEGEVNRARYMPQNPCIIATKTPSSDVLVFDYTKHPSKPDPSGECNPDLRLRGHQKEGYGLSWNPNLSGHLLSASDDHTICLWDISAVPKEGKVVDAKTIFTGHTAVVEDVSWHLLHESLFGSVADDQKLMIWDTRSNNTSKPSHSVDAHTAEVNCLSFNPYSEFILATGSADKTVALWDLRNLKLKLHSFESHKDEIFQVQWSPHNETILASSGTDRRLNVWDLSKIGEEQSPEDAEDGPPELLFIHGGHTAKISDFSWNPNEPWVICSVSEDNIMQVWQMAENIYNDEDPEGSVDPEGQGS

LIN9^FL(1–542) [1] = molecular target: B3; assay: as above; conditions: both partners purified
B-MYB^FL(1–700) = molecular target: T1, B-MYB^FL(1–700); assay: cryo-EM structure; MMB^core:NCP167 mixed at 2.5:1, GraFix (glutaraldehyde, sucrose gradient); nucleosome at 3.3 Å, MuvB^HEAD 7.5 Å and MuvB^TAIL 8.7 Å, known structures fitted; conditions: both partners purified
LIN9^FL(1–542) [2] = molecular target: B3; assay: SEC; subunits co-expressed in Hi-5 cells; complex held on Strep-Tactin by StrepII x2 on LIN37, washed with 1000 mM NaCl, tag cut with 3C, then SEC (S200 or Superose 6) in 20 mM HEPES pH 8, 150 mM NaCl, 0.5 mM TCEP; conditions: partners not purified

Binder | stoichiometry N (LIN37^FL(1–246)) | binding result (RbBP4^FL(1–425)) | binding result (LIN9^FL(1–542) [1]) | binding result (B-MYB^FL(1–700)) | binding result (LIN9^FL(1–542) [2])
B1 | 1 | – | – | – | –
B2 | 1 | binds | binds | – | –
B3 | 1 | – | – | binds | –
B4 | – | – | – | – | binds
